According to the DeepSol protein solubility set:

Experiment: soluble on expression in E. coli; label from the status in PepcDB or PDB records

Sequence	soluble on expression in E. coli
KYPFLREAGSSFKDRDVTKMSDLIATWDGQDIKGPALIGVPLSKSSISHSGASFAPGTIRQALKHSSAYSAELGEHVVSELLYDLGDIDIHVTDIVKSHHHIFQTMHALLSDHPDWVPLILGGDNSISYSTIKAIAQTKGTTAVIQFDAHHDVRNTEDGGPTNGTPFRRLLDEEIIEGQHLIQLGIREFSNSQAYEAYAKKHNVNIHTMDMIREKGLIPTIKEILPVVQDKTDFIFISVDMDVLDQSHAPGCPAIGPGGLYTDELLEAVKYIAQQPNVAGIEIVEVDPTLDFRDMTSRAAAHVLLHALK	not soluble
LDDEDVDTVVDHCGDILEHFERLEEVPEVDAEPELVNVMRADEIADSLDQDDALANAPETEDGRF	soluble
LDGIAELTGARVEDLAGMDVFQGCPAEGLVSLAASVQPLRAAAGQVLLRQGEPAVSFLLISSGSAEVSHVGDDGVAIIARALPGMIVGEIALLRDSPRSATVTTIEPLTGWTGGRGAFATMVHIPGVGERLLRTARQRLAAFVSPIPVRLADGTQLMLRPVLPGDRERTVHGHIQFSGETLYRRFMSARVPSPALMHYLSEVDYVDHFVWVVTDGSDPVADARFVRDETDPTVAEIAFTVADAYQGRGIGSFLIGALSVAARVDGVERFAARMLSDNVPMRTIMDRYGAVWQREDVGVITTMIDVPGPGELSLGREMVDQINRVARQVIEAVG	not soluble
LDNAPLLELDVQEWVNHEGLSNEDLRGKVVVVEVFQMLCPGCVNHGVPQAQKIHRMIDESQVQVIGLHSVFEHHDVMTPEALKVFIDEFGIKFPVAVDMPREGQRIPSTMKKYRLEGTPSIILADRKGRIRQVQFGQVDDFVLGLLLGSLLSETD	not soluble
LDRAYLRVENQRYRDKLEAANRELQASLNLLQEDQNAGRQVQMNMLPVTPWSIEGLEFSHRIIPSLYLSGDFVDYFRVDERRVAFYLADVSGHGASSAFVTVLLKFMTTRLLYESRRNGTLPEFKPSEVLAHINRGLINTKLGKHVTMLGGVIDLEKNSLTYSIGGHLPLPVLFVEGQAGYLEGRGLPVGLFDDATYDDRVMELPPSFSLSLFSDGILDVLPGATLKEKEASLPEQVAAAGGTLDGLRQVFGLANLAEMPDDIALLVLSRNLA	not soluble
LEDFNVTSKVIELDVRKPTPEAAENLNIGMDEDIYYVKRVRYINGQTLCYEESYYTKSIVTYLNNEIVSHSIFHYIREGLGLKIGFSDLFLHVGQLNEEEAEYLGLEAGLPKLYIESIFHLTNGQPFDYSKISYNYEQSQ	not soluble
LETLNNASKTIDLQGKISDVDGDTLSITLHGSARFSLNGTQVTFTPNGFVGLDQAVYSVEDGKGGYALANIVAISEDANPPVPNMAPTANDAQFTLDVAKNVTFNIDLVAQRLIADADGDALSIAHIYTANNRATKQGATGITYTPGAFRGVDQFTYVITDGKDGYAINAITVVVNDSTPANKIPTAGPVTAKMLHNDPAITISVNSAVSDADGDTLKIVSISGALGQASINPANALEMLYEPKGFVGTDRFVYVVSDDNGGYAMGEVTVTVTDSNPTAPVANTVQENTLLDTPINIDLSAYISDKETETANLVISNVTNATSPAVATLSGQTVIYTPNGFTGNDILTYTVTDGRHSTNGTIVISVNAHGAHAIQADNLEGGTEPNAPFIHDLSALISTTDPTAGELIVVNAIGGALGTATVTNNILTYTPKLGVFGKDRLIYTVKDSHNPAHYTQGTISI	not soluble
LFEMGLQRYLESGLRNESENLLVALVRGPAGLQLDDHRLSGAYQRPLSGHYFRMDLPQGHWRSRSLWDFELPQPGVGLHANLELGKTVQSLLMLTSEYRKFGKQISITVAQDYTPVRASFR	not soluble
LFPSFLKPLAAHALELALNRLLTLDPDTSQALRTLDGQCIALSLKTPAVELQIRVDGECLRVGPVDAAYEMDLKVHGTLAGFLGQLPWLEQVRRAGGAQTGRLRVAGDAELAQRLQQLARRFDPDWQQPFIVVFGELLGVQIAGVLRMTLRQLQRSAVDLAQSAAEFITEESSSVVPRAELEAFYEDVDVLRDDVERLATRLMKLCSEMAA	not soluble
LGECLADLAVDALIDEAELSPKPALVDRRGNGAHADLHLGLMQASALSLWPCFKEMADAAQRHGRIDARLRGVLGQLGRDGEAAMLRTTEGVNTHRGAIWALGLLVAAAALEPRRTQAGEVAARAGRIALLDDPAAAIGDSHGERVRRRYGVGGAREEARLCFPRAVRHGLPQLWRSREGGAGEQNARLDALLAIMSVLDDTCVLHRAGRVGLAAMQDGARAVLAAGGSASLAGRRRLCELDRRLLALNASPGGAADLLAACLFLDRLPAVSGGWAGSL	not soluble
LGIAGLRYTFTFAVATAPSELLNITWYSAVSAAFNGALKFSITPLLPLGPITDERVEVSITALTPLSGVRSTSTALTPVRLCSAFAILFTDTKAEKLEFFEDTTERVDGDAVIPHTVNSETAALPTPFS	not soluble
LGQTAYQKDSLARLARRGDELGTLARDFNRMGERLQSLIGSQRQLLRDVSHELRSPLARLRIALALAERAEPEARAQMWPRLEQECDRLEALIGEILALARLDAEPGASQRIALLPLLQRLREDALLLAPEQDIRLEVAPDLSIDGWPDMFERAVDNLLRNAVRFNPVGQPLEVRASSAGDYLRLSVRDHGPGIAAELQEQLGEPFFRAPNQSSPGHGLGLAIARRAIERHGGHLRLGNHPDGGFIATLSLPLRRKAT	not soluble
LGTLFFSLEYNFERKAFVVNIKEARGLPAMDEQSMTSDPYIKMTILPEKKHKVKTRVLRKTLDPAFDETFTFYGIPYTQIQELALHFTILSFDRFSRDDIIGEVLIPLSGIELSEGKMLMNREII	soluble
LHLELEEKLAGIAAWEPTAPRLLNPGVSSGKALVASGVAAAHAREVLEDLGLRDVIPLWQVVQPYPLHTAFVERLLADYDEILVLEETTGVMELQLADRHRVKGKRSGFVPEVGELSPELVERLVAAFAGIPAAPSVAPPTGGGRRPTLCPGCPHRASFHAIKRAAPKGIYPSDIGCYTLGLNLGGVDTVLCMGAAVSQAAGFYHAYKLSGQVPDIVATIGDSTFFHAGIPPLIDAVVQDARFVLVILDNATTAMTGNQPTPALGWGAGGVPTATVDMEGLVKACGV	not soluble
LLAKEKYNGTESDDKYDPVEIVKWKIDREDGRKTLNSYINVLVLGLDDDEKRSDVIALINYNPDENKMNILSIARDTRVKVNGKYMKINALIGKGGEKMVIDMVEDITGLPVDYYVTLNFKGFREIVDTLGGVEINVPFDMDYDDPYQNLHIHLKKGKQVLDGKKAEQFVRYRKGNHNGEGYEDGDLGRIKMQQLFMREFVNQKLKLKYLLKADEIFYTLKKNMRTNIEIGDIRYFIKDIKNIKTPEINGYTLPGYSRYIGGQWFYIYDKKKTKELIEQNFYYSN	soluble
LLERLPVPVLAVQHDGVVVYSNRAFERMLDYPPNEVGNHLIGDLMQTASPGPSAVAELRESAGKLVALTHRDGSTVRAFVSESVLERHDDPVTLVCFHDVT	not soluble
LLLFFPLGLQQPLLLLLSPPFQHEIQRRKEEIKEEKKRKEMAKQERLEIASLSNQDHTSKKDPGGHRTAAILHGGSPDFVGNGKHRANSSGRSRRERQYSVCNSEDSPGSCEILYFNMGSPDQLMVHKGKCIGSDEQLGKLVYNALETATGGFVLLYEWVLQWQKKMGPFLTSQEKEKIDKCKKQIQGTETEFNSLVKLSHPNVVRYLAMNLKEQDDSIVVDILVEHISGVSLAAHLSHSGPIPVHQLRRYTAQLLSGLDYLHSNSVVHKVLSASNVLVDAEGTVKITDYSISKRLADICKEDVFEQTRVRFSDNALPYKTGKKGDVWRLGLLLLSLSQGQECGEYPVTIPSDLPADFQDFLKKCVCLDDKERWSPQQLLKHSFINPQPKMPLVEQSPEDSGGQDYVETVIPSNRLPSAAFFSETQRQFSRYFIEFEELQLLGKGAFGAVIKVQNKLDGCCYAVKRIPINPASRQFRRIKGEVTLLSRLHHENIVRYYNAWIERHERPAGPGTPPPDSGPLAKDDRAARGQPASDTDGLDSVEAAAPPPILSSSVEWSTSGERSASARFPATGPGSSDDEDDDEDEHGGVFSQSFLPASDSESDIIFDNEDENSKSQNQDEDCNEKNGCHESEPSVTTEAVHYLYIQMEYCEKSTLRDTIDQGLYRDTVRLWRLFREILDGLAYIHEKGMIHRDLKPVNIFLDSDDHVKIGDFGLATDHLAFSADSKQDDQTGDLIKSDPSGHLTGMVGTALYVSPEVQGSTKSAYNQKVDLFSLGIIFFEMSYHPMVTASERIFVLNQLRDPTSPKFPEDFDDGEHAKQKSVISWLLNHDPAKRPTATELLKSELLPPPQMEESELHEVLHHTLTNVDGKAYRTMMAQIFSQRISPAIDYTYDSDILKGNFSIRTAKMQQHVCETIIRIFKRHGAVQLCTPLLLPRNRQIYEHNEAALFMDHSGMLVMLPFDLRIPFARYVARNNILNLKRYCIERVFRPRKLDRFHPKELLECAFDIVTSTTNSFLPTAEIIYTIYEIIQEFPALQERNYSIYLNHTMLLKAILLHCGIPEDKLSQVYIILYDAVTEKLTRREVEAKFCNLSLSSNSLCRLYKFIEQKGDLQDLMPTINSLIKQKTGIAQLVKYGLKDLEEVVGLLKKLGIKLQVLINLGLVYKVQQHNGIIFQFVAFIKRRQRAVPEILAAGGRYDLLIPQFRGPQALGPVPTAIGVSIAIDKISAAVLNMEESVTISSCDLLVVSVGQMSMSRAINLTQKLWTAGITAEIMYDWSQSQEELQEYCRHHEITYVALVSDKEGSHVKVKSFEKERQTEKRVLETELVDHVLQKLRTKVTDERNGREASDNLAVQNLKGSFSNASGLFEIHGATVVPIVSVLAPEKLSASTRRRYETQVQTRLQTSLANLHQKSSEIEILAVDLPKETILQFLSLEWDADEQAFNTTVKQLLSRLPKQRYLKLVCDEIYNIKVEKKVSVLFLYSYRDDYYRILF	soluble
LPAMEIECRITGTLNGVEFELVGGGEGTPEQGRMTNKMKSTKGALTFSPYLLSHVMGYGFYHFGTYPSGYENPFLHAINNGGYTNTRIEKYEDGGVLHVSFSYRYEAGRVIGDFKVMGTGFPEDSVIFTDKIIRSNATVEHLHPMGDNDLDGSFTRTFSLRDGGYYSSVVDSHMHFKSAIHPSILQNGGPMFAFRRVEEDHSNTELGIVEYQHAFKTPD	soluble
LQMLTLEEWAAEKYRSNPPSVSTLRRYAKQNLFCPPAMKQGRLWRVREDAELVGELVTPVIKKNDSLLLQRILSNGSQTA	not soluble
LQVYTSDNQLIAEYGGKLSVPVEYNQIPPTFIHAFLAAEDSSFFEHSGISFKGLGRALSETVTGSNVQTGGSTITMQVAKNYYLSPERTLKRKLTEIFLARKIEQNLTKQEILSLYVNKIFLGKNAYGIAAAAKIYYNKTLDQLSIAEMAMISGLPKAPSKYNPVVNP	not soluble
LRRGHLKLQRDGQIIGHTPEEWEQIFREVWPEYEIEPNPLPGYAPFDIGMWLTVEAPAYAVWIDPEDGSEYWAG	not soluble
LSDEDFRAVFGMTRSAFANLPLWRQQNLRRERGLF	soluble
LSLLLEVSGNPKAGNVDREHDFDDLKFEHFLASAAGAFPAFLEVAEKRIIGEGVLRAVKESMRWHRAENVHFGAFLLLVPLISSWDAGGMVDIAEAARNRLRRTDFRDSLSVLEAFRLSNARVVEAGELNLKDRKTEEEIAQKKINLYEWMKMAPEENLIARELVDGFKISIEGAKFLLSFGNSGKAVVELYYHLLSKFPDPLVIAKMGREYAEKITEWAEKARTEEERKELDEKLLKDGANPGTIADLTASSI	not soluble
LTLKNPIMVVGLPGVGLVGKLVAEHLVDELAAERIMEVYSPHFPPQVLVNKDCTVRPVSNTIYLGKANETDVLFLVGDHQSTTAQGHYELCSLYLDIAEELKVPRIYTLGGYPTGKLTYEDTVLGVANSTELIEEIKQYGVEFRESEPSGGIVGASGLLVAFSGMRGIDAACLMGMTPGYLMDPKSAQSLLKVLCNIFGIEVNTDSLKKKAEEMENILEKLKEKEEQQNLPEVKPTEEDLRYIG	not soluble
